Laboratory results: patent US7595168B2, “Method of screening for substances useful for transdifferentiation of microglia into neurons” (Eisai R&D Management Co., Ltd., priority 2006, dated 2009)

System: microglia
Test: Action of BMP on transdifferentiation of microglia into neurons; immunocytochemical marker quantification
Assay type: cell-based, rat
Settings: day 5 after enrichment; 100 ng/ml noggin in medium containing 70% FCS, 2 days
Protocol: The cerebral cortex was isolated from newborn Wistar rats aged from 0 to 1 day (obtained from Shimizu Experimental Material Co. Ltd.) and cultured in an Eagle's minimum essential medium (EMEM) supplemented with 10% fetal calf serum (FCS) and […] insulin at 37° C. in an atmosphere of 5% CO2. After 14 to 16 days of incubation, microglia were isolated and prepared by the enriching procedure.
The cells were fixed with 4% paraformaldehyde and then reacted individually with an anti-CD11b antibody ([…], Chemicon International) or an anti-MAP2 antibody ([…], DakoCytomation) as a primary antibody and with Cy2-conjugated goat anti-mouse IgG (H+L) (Jackson ImmunoResearch) or Cy3-conjugated goat anti-rabbit IgG (H+L) (Jackson ImmunoResearch) as a secondary antibody. The CD11b is a marker for microglia and the MAP2 is a marker for neurons. […]
After immunostaining the cells, images (200× magnification) of 8 fields per case were randomly obtained using a fluorescent microscope and MataMorph software (Molecular Devices). The numbers of cells expressing individual markers were counted and the average rates to the total number of cells were used as data. […]
Quantification was carried out in the same manner as in Example 1.

B1: noggin: a BMP inhibitor (N6784), Sigma (protein, UniProt Q13253 28-232, looked up)
Noggin: QHYLHIRPAPSDNLPLVDLIEHPDPIFDPKEKDLNETLLRSLLGGHYDPGFMATSPPEDRPGGGGGAAGGAEDLAELDQLLRQRPSGAMPSEIKGLEFSEGLAQGKKQRLSKKLRRKLQMWLWSQTFCPVLYAWNDLGSRFWPRYVKVGSCFSKRSCSVPEGMVCKPSKSVHLTVLRWRCQRRGGQRCGWIPIQYPIISECKCSC
effect on transdifferentiation of microglia into neurons by 70% serum: this transdifferentiation was suppressed
